Source: the RNAGym collection of RNA variant scans (doi:10.7554/elife.80360)

B1: HDV Ribozyme (parent)
chain: GGCCGGCAUGGUCCCAGCCUCCUCGCUGGCGCCGGCUGGGCAACAUUCCGAGGGGACCGUCCCCUCGGUAAUGGCGAAUGGGACCCA

Variants of: B1
Assay: self-cleavage, relative activity (ratio to wild type); higher = more cleavage; co-transcriptional

Variant	self-cleavage
GGCCGGCGUGGUCCCAGCCUCCUCCCUGGCGCCGGCUGGGCAACAUUCCGAGGGGACCGUCCCCUCGGUAAUGGCGAAUGGGACCCA	0.175
GGCCGGCGUGGUCCCAGCCUCCUCACUGGCGCCGGCUGGGCAACAUUCCGAGGGGACCGUCCCCUCGGUAAUGGCGAAUGGGACCCA	0.0639
GGCCGGCGUGAUCCCAGCCUCCUCGCUGGCGCCGGCUGGGCAACAUUCCGAGGGGACCGUCCCCUCGGUAAUGGCGAAUGGGACCCA	0.196
GGCCGGCGUGGUCCCAGCCUCCUCGCUGGCGCCGGCUGGGCAACAUUCCGAGGGGACCGUCCCCUCGGUAAUAGCGAAUGGGACCCA	0.369
GGCCGGCGUGGUCCCAGCCUCCUCGCUGCCGCCGGCUGGGCAACAUUCCGAGGGGACCGUCCCCUCGGUAAUGGCGAAUGGGACCCA	0
GGCCGGCGUGGUCCCAGCCUCCUCGCUGACGCCGGCUGGGCAACAUUCCGAGGGGACCGUCCCCUCGGUAAUGGCGAAUGGGACCCA	0
GGCCGGCGUGGUCCCAACCUCCUCGCUGGCGCCGGCUGGGCAACAUUCCGAGGGGACCGUCCCCUCGGUAAUGGCGAAUGGGACCCA	0.629
GGCCGGCGUGGUCCCACCCUCCUCGCUGGCGCCGGCUGGGCAACAUUCCGAGGGGACCGUCCCCUCGGUAAUGGCGAAUGGGACCCA	0.0519
GGCCGGCGCGGUCCCAGCCUCCUCGCUGGCGCCGGCUGGGCAACAUUCCGAGGGGACCGUCCCCUCGGUAAUGGCGAAUGGGACCCA	1.11
GGCCGGCGAGGUCCCAGCCUCCUCGCUGGCGCCGGCUGGGCAACAUUCCGAGGGGACCGUCCCCUCGGUAAUGGCGAAUGGGACCCA	0.506
GGCCGGCGUGGUCCCAGCCUCCUCGCUGGCGCCGGCUGGGCAACAUUCCGAGGGGACCGUCCCCUCGGUAAUGGCGAAUGAGACCCA	0.0875
GGCCGGCGUGGUCCCAGCCUCCUCGCUGGCGCCGGCUGGGCAACAUUCCGAGGGGACCGUUCCCUCGGUAAUGGCGAAUGGGACCCA	0.982
GGCCGGCGUGGUCCCAGCCUCCUCGCUGGCGCCGGCUGGGCAACAUUCCGAGGGGACCGUCCCCUCGGUAAUGGCGAAUUGGACCCA	0.173
GGCCGGCGUGGUCCCAGCCUCCUCGCUGGCGCCGGCUGGGCAACAUUCCGAGGGGACCGUCCCCUCGGUAAUGGCGAAUGGAACCCA	0.237
GGCCGGCGUGGUCCCAGCCUCCUCGCUGGCGCCGGCUGGGCAACAUUCCGAUGGGACCGUCCCCUCGGUAAUGGCGAAUGGGACCCA	0.849
GGCCGGCGUGGUCCCAGCCUCCUCGCUGGCGCCGGCUGGGCAACAUUCCGAGGGGACCGUCCCCUAGGUAAUGGCGAAUGGGACCCA	0.886
GGCCGGCGUGGUCCCAGCCUCCUCGCUGGCGCCGGCUGGGCAACAUUCCGAGGGGACCGUCCCCUGGGUAAUGGCGAAUGGGACCCA	0.969
GGCCGGCGUGGUCCCAGCCUCCUCGCUGGCGCCGGCUGGGCAACAUUCCGAGGGGACCGUCCCCUCGGUAAUGGCGAAUGGGAGCCA	0.396
GGCCGGCGUGGUCCCAGCCUCCUCGCUGGCGCCGGCUGGGCAACAUUCCGAGGGGACCGUCCCCUCGGUAAUGGCGAAUGGGAUCCA	0.864
GGCCGGCGUGGUCCCAGCCUCCUCGCUGGCGCCGGCUGGGCAACAUUCCGAGGGGACCGUCCCCUCGGUAAUGGCGAAUGGGACUCA	1.06
GGCCGGCGUGGUCCCAGCCUCCUCGCUGGCGCCGGCUGGGCAACAUUCCGAGAGGACCGUCCCCUCGGUAAUGGCGAAUGGGACCCA	1.04
GGCCGGCGUGGUCCCAGCCUCCUCGCUGGCGCCGGCUGGGCAACAUUCCGAGUGGACCGUCCCCUCGGUAAUGGCGAAUGGGACCCA	1.02

Variant	self-cleavage
GGCCGGCGUGGUCCCAGCCUCCUCGCUGGCGCCGGCUGGUCAACAUUCCGAGGGGACCGUCCCCUCGGUAAUGGCGAAUGGGACCCA	0.554
GGCCGGCGUGGUCCCAGCCUCCUCGCUGGCGCCGGCUGGCCAACAUUCCGAGGGGACCGUCCCCUCGGUAAUGGCGAAUGGGACCCA	0.369
GGCCGGCGUGGUCCCAGCCUCCACGCUGGCGCCGGCUGGGCAACAUUCCGAGGGGACCGUCCCCUCGGUAAUGGCGAAUGGGACCCA	0.9
GGCCGGCGUGGUCCCAGCCUCCGCGCUGGCGCCGGCUGGGCAACAUUCCGAGGGGACCGUCCCCUCGGUAAUGGCGAAUGGGACCCA	0.776
GGCCGGCGUGGUCCCAGCCUCCUCGCUGGCGCCGGCUGGGCAACAUUCCGAGGGGACCAUCCCCUCGGUAAUGGCGAAUGGGACCCA	0.743
GGCCGGCGUGGUCCCAGCCUCCUCGCUGGCGCCGGCCGGGCAACAUUCCGAGGGGACCGUCCCCUCGGUAAUGGCGAAUGGGACCCA	1.22
GGCCGGCGUGGUCCCAGCCUCCUCGCUGGCGCCGGCUGGGCAACAUUCCGAGGGGACCGUCCCCUCAGUAAUGGCGAAUGGGACCCA	0.755
GGCCGGCGUGGUCCCAGCCUCCUCGCUGGCGCCGGCUGGGCAACAUUCCUAGGGGACCGUCCCCUCGGUAAUGGCGAAUGGGACCCA	0.984
GGCCGGCGUGGUCCCAGCCUCCUCGCUGGCGCCGGCUGGGCAACAUUCCGAGGGGACCGUCCACUCGGUAAUGGCGAAUGGGACCCA	1.22
GGCCGGCGUGGUCCCAGCCUCCUCGCUGGCGCCGGCUGGGCAACAUUCCGAGGGGACCGUCCGCUCGGUAAUGGCGAAUGGGACCCA	1.11
GGCCGGCGUGGUCCCAGCCUCCUCGCUGGCGCCGGCUGGGCAACAUUCCGAGGGCACCGUCCCCUCGGUAAUGGCGAAUGGGACCCA	0.982
GGCCGGCGUGGUCCCAGCCUCCUCGCUGGCGCCGGCUGGGCAACAUUCCGAGGGUACCGUCCCCUCGGUAAUGGCGAAUGGGACCCA	0.804
GGCCGGCGUGGUCCCAGCCCCCUCGCUGGCGCCGGCUGGGCAACAUUCCGAGGGGACCGUCCCCUCGGUAAUGGCGAAUGGGACCCA	0.217
GGCCGGCGUGGUCCCAGCCUCCUCGCUGGCGCCGGCUGGGCAACAUUCCGAGGGGACCGUCCCAUCGGUAAUGGCGAAUGGGACCCA	0.764
GGCCGGCGUGGUCCCAGCCUCCUCGCUGGCGCCGGCUGAGCAACAUUCCGAGGGGACCGUCCCCUCGGUAAUGGCGAAUGGGACCCA	0.302
GGCCGGCGUGGUCCCAGCCUCCUCGCUGGCGCCGGCUGUGCAACAUUCCGAGGGGACCGUCCCCUCGGUAAUGGCGAAUGGGACCCA	0.54
GGCCGGCGUGGUCCCAGCCUCCUCGCUGGCGCCGGCUCGGCAACAUUCCGAGGGGACCGUCCCCUCGGUAAUGGCGAAUGGGACCCA	0.138
GGCCGGCGUGGUCCCAGCCUCCUCGCUGGCUCCGGCUGGGCAACAUUCCGAGGGGACCGUCCCCUCGGUAAUGGCGAAUGGGACCCA	0.587
GGCCGGCGUGGUCCCAGCCUCCUCGCUGGCACCGGCUGGGCAACAUUCCGAGGGGACCGUCCCCUCGGUAAUGGCGAAUGGGACCCA	0.415
GGCCGGCGUGGUCCCAGCCUCCUCGCUGGCCCCGGCUGGGCAACAUUCCGAGGGGACCGUCCCCUCGGUAAUGGCGAAUGGGACCCA	0.145
GGCCGGCGUGGUCCCAGCCUCCUCGCUGGCGCCGGCUGGGCAACAUUCCGAGGGGACCGUCCCCUCGUUAAUGGCGAAUGGGACCCA	0.855
GGCCGGCGUUGUCCCAGCCUCCUCGCUGGCGCCGGCUGGGCAACAUUCCGAGGGGACCGUCCCCUCGGUAAUGGCGAAUGGGACCCA	0.431

Variant	self-cleavage
GGCCGGCGUGGUCCCAGCCUCCUCGCUGGCGCCGGCUGGGCAACAUUCCGAGGGGACUGUCCCCUCGGUAAUGGCGAAUGGGACCCA	0.962
GGCCGGCGUGGUCCCAGCCUCCUCGCUGGCGCCGGCUGGGCAACAUUCCGAGGGGACGGUCCCCUCGGUAAUGGCGAAUGGGACCCA	0.895
GGCCGGCGUGGUCCCAGCCUCCUCGCUGGCGCCGGCUGGGCAACAUUCCGAGGAGACCGUCCCCUCGGUAAUGGCGAAUGGGACCCA	0.877
GGCCGGCGUGGUCCCAGCCUCCUCGCUGGCGCCGGCUGGGCAACAUUCCGAGGCGACCGUCCCCUCGGUAAUGGCGAAUGGGACCCA	1.07
GGCCGGCGUGGUCCCAGCCUCCUCGCUGGCGCCGGCUGGGCAACAUUCCGAGGGGACCGUCCCCUCGGUAAUGGGGAAUGGGACCCA	0.525
GGCCGGCGUGGUCCCAGCCUCCUCGCUGGCGCCGGCUGGGCAACAUUCCGAGGGGACCGUCCCCUCGGUAAUGGUGAAUGGGACCCA	0.133
GGCCGGCGUGGUCCCAGCCUCCUCGCUGGCGCCGGCUGGGCAACAUUCCGAGGGGACCGUCCCCUCGGUAAUGGCGAAUGGGACCAA	1.15
GGCCGGCGUGGUCCCAGCCUCCUCGCUGGCGCCGGCUGGGCAACAUUCCGAGGGGACCGUCCCCUCGGUAAUGGCGAAUGGGACCGA	1.23
GGCCGGCGUGGUCCCAGCCUCCUCGCUGGCGCCGGCUGGGCAACAUUCCGAGGGGACCGUCCCCUCGGUAAUGACGAAUGGGACCCA	0.256
GGCCGGCGUGGUCCCAGCCUCCUCGCUGGCGCCGGCUGGGCAACAUUCCGAGGGGACCGUCCCCUCGGUAAUGCCGAAUGGGACCCA	0.0639
GGCCGGCGUGGUCCCAGCCUCCUCGCUGGCGCCGGCUGGGCAACACUCCGAGGGGACCGUCCCCUCGGUAAUGGCGAAUGGGACCCA	0.782
GGCCGGCGUGGACCCAGCCUCCUCGCUGGCGCCGGCUGGGCAACAUUCCGAGGGGACCGUCCCCUCGGUAAUGGCGAAUGGGACCCA	0
GGCCGGCGUGGCCCCAGCCUCCUCGCUGGCGCCGGCUGGGCAACAUUCCGAGGGGACCGUCCCCUCGGUAAUGGCGAAUGGGACCCA	0.151
GGCCGGCGUGGUCCCAGCCUCCUCGCAGGCGCCGGCUGGGCAACAUUCCGAGGGGACCGUCCCCUCGGUAAUGGCGAAUGGGACCCA	0.867
GGCCGGCGUGGUCCCAGCCUCCUCGCCGGCGCCGGCUGGGCAACAUUCCGAGGGGACCGUCCCCUCGGUAAUGGCGAAUGGGACCCA	0.791
GGCCGGCGUGGUCCCAGCCUCCUCGCUGGCGCCCGCUGGGCAACAUUCCGAGGGGACCGUCCCCUCGGUAAUGGCGAAUGGGACCCA	0.0573
GGCCGGCGUGGUCCCAGCCUCCUCGCUGGCGCCUGCUGGGCAACAUUCCGAGGGGACCGUCCCCUCGGUAAUGGCGAAUGGGACCCA	0.429
GGCCGGCGUGGUCCCAGCCUCCUCGCUGGCGCCAGCUGGGCAACAUUCCGAGGGGACCGUCCCCUCGGUAAUGGCGAAUGGGACCCA	0.095
GGCCGGCGUGGUCCCAGCCUCCUCGCUGGCGCCGGCUGGGCAACAUUCCGAGGGGACCGCCCCCUCGGUAAUGGCGAAUGGGACCCA	1.16
GGCCGGCGUGGUCCCAGCCUCCUCGCUGGCGCCGGCUGGGCAACAUUCCGAGGGGACCGUCCCCUCGGUAAUGGCCAAUGGGACCCA	1.13
